Results on 1 sequence are retold here after doi:10.1101/813527.

The target in data set [1] is GFP-S14D S26D-SAP (phosphomimetic SAF-A SAP domain) (UniProt Q00839). The experiment in a line: EMSA. Background: In EMSA bound probe runs differently from free probe, usually more slowly.
The target of data set [2] is GFP-WT-SAP (SAF-A SAP domain) (UniProt Q00839). The experiment in a line: EMSA.

Where only a bound is given, the exact number is not on record here.

“AATTCAGAAAATAATAAAATAAAACTAGCTATTTTATATTTTTTC (double strand) [AT-rich SAR DNA]”: the dissociation constant (Kd) (in general, a measure of binding affinity in units of concentration) in data set [1] is greater than 75 µM; in data set [2] it was 16.5 µM.
